Assay results from the supplement of paper PMC9170038.

Test system: MS2 coat protein
Test: apparent KD of MS2 coat protein; higher = weaker reporter binding
Conditions: Eterna round: R107
Procedure: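 RNA-MaP round R107: designed RNA switches with theophylline, tryptophan, arginine or FMN aptamers are transcribed on-chip within common flanks. They are titrated with SNAP-549-labelled MS2 coat protein in RNA-MaP buffer (100 mM Tris pH 7.5, 80 mM KCl, 4 mM MgCl2), without ligand or with the indicated ligand. Median apparent KD per design.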

[1] = input ligand: theophylline 20 uM
[2] = input ligand: theophylline 2 mM
[3] = input ligand: tryptophan 2.4 mM

Sequence	apparent KD of MS2 coat protein (input ligand: arginine 13.2 mM) [nM]	apparent KD of MS2 coat protein (input ligand: none) [nM]	apparent KD of MS2 coat protein [1] [nM]	apparent KD of MS2 coat protein [2] [nM]	apparent KD of MS2 coat protein [3] [nM]
AGCCCGGGAGCGGCCGCCACUGGAGGCUUAGCGCGACAUGAGGAUCACCCAUGUGUGCCCGGCGUUAGGACCGGGCUCGCGUGGU [#1 Same State - Tryptophan B Attempt #22 (HarryS)]	15.3	31.2	52.7	46.1	35.2
AGCCCUGUACUAGAUACCAGCUACAUGAGGAUCACCCAUGUACGAUAAGACUGUCCAUGUAGCCCUUGGCAGCUGCUCGCAUGUA [#13 Exclusion-TheophyllineB]	24.1		41.3		29.2
AGCCGGAUUACGGCCGCCACUGUAGACGUGACGAAAGUCGCGUCAACAUGAGGAUCACCCAUGUACAGGACCGGGUGGUCCGGCA [Omei Trp B SS A v3]	7.09	9.61	11.2	8.87	8.97
AGCCUAUUACAUGAGGAUCACCCAUGUGAUACCAGUCAGGAAACUGACCCUUGGCAGCGCAUGAGGAUCACCCAUGCGCGAGGCA [Omei Theo A Exc A v4]	10.1		12.9		10.6
AGCGACAUGCAUGAUACCAGCUACAUGAGGAUCACCCAUGUACGUCAGUAAUGACUGUGUAGCCCUUGGCAGCAUAAAGCAUGUC [Exclusion - Theophylline B (Freestyle 17)]	22.8		44.5		26.5
AGCGAUAUGCAUGAUACCAGCUACAUGAGGAUCACCCAUGUGCGUCAGAAAUGACUGUGUAGCCCUUGGCAGCAUAGAGCAUGUA [Exclusion - Theophylline B (Freestyle 11)]	35.2		46.2		38.4
AGCGCGGUGAUGGUAGCCGGACGCUAGGUACGAGGACCGGUACGGCCGCCACUCGGAGUCCUACGACAUGAGGAUCACCCAUGUA [Same State Trp A GF16]	61.2		106	111	
AGCGCUGUGCAUGAUACCAGCUACAUGAGGAUCACCCAUGUGCGUCAGAAAUGACUGUGUAGCCCUUGGCAGCAUAAAGCAUGUA [Exclusion - Theophylline B (Freestyle 8)]	19.7		26.6		19.6
AGGAAACAACAUGAGGAUCACCCAUGUGAUACCAGUCAAAUAAAAGACCCUUGGCAGCACACAUGACAUGAGGAUCACCCAUGUA [AstrosSSTheA#1]	24.8		41.5		59.8
AGGACGGUCGGAAGGAGCGGUACAUGAGGAUCACCCAUGUACUUAUGGGCAUCCGUAGAGUGCCAGGUAGGUCGCCGAUUGCGGG [XArg-B11]	17.2	33	29	21.8	34.1
AGUAGACACGCGGCCGCCACUUGAGGAUCACCCAAGUGGUGUGUACUUGAAAACAAGUGCACAUCAAGGACCGGGCGUGUCUACA [Omei Tryp B SS D v3]	7.19	7.05	8.01	7.12	8.54
AGUAGACACGCGGCCGCCACUUGAGGAUCACCCAAGUGGUGUGUACUUGAAACAAGUGCACAAUCAAGGACCGGGCGUGUCUACA [Omei Tryp B SS D v4]	5.02	7.02	8.77	7.77	13
AGUAGACACGCGGCCGCCACUUGAGGAUCACCCAGGUGGUGUGUACUUGAAACAAGUGCACAAUCAAGGACCGGGCGUGUCUACA [Omei Tryp B SS D v1]	12.6	13.5	17.4	15.1	83.7
AGUAUCAGUGGAAGGAGCGUCGCGACUGCUACAUGAGGAUCACCCAUGUCGCCUUGAGCGCGACAGGUAGGUCGCCACGGUAGGC [SS-ArgB1]	28.6	49.6	68.8	72.1	40.3
AGUCUUAAUGGAAGGAGCGCAGUCAUAACAUGAGGAUCACCCAUGUCGAGGUGAGGGUCAUUGCAGGUAGGUCGCCAUACUAGGA [Same State - Arginine B (Freestyle 2)]	84.6	181	264	240	131
AGUUUAGACACGGCCGCCACUCGUGACAGAUUUCGCAGUGGUCUACAUGAGGAUCACCCAUGUCUGAGGACCGGGUGUUGAGUUU [XTryp B #8]	76.3		177	194	
AUAAAUAAAACCGAUACCAGCCUUAUACAUGAGGAUCACCCAUGUUAUGCUUCCUUUUUUGGCCCUUGGCAGCGGAAAUGGGUAA [AstrosSSTheB#1]	45.3		74.4		75.6
AUAACAUGAGGAUCACCCAUGUAAGCAGAUACCAGCUAGGAAACUAGCCCUUGGCAGCUGCAAUCAUGGGUGUGGUAUCUGCUAA [(M1)-(M2)-(T1)-(T2)-(M)'-(T)'_Design5]	21.5		39.7		16.4
AUAACAUGAGGAUCACCCAUGUAGAGUGAUACCAGACUAUGUAAUGUCCCUUGGCAGCACAAGUAAAGUUAUAAAUAAUGAUAGA [JR_SSTheophyA_Sub001]	89.3		126		136
